Values belong to the molecule of their own block, whether it stands above or below them.
Assays:
KAP phosphatase [1] = target: T1, KAP phosphatase (Homo sapiens, UniProt Q16667); test: KAP phosphatase activity assay, hydrolysis of pNPP; assay type: biochemical
Experimental: KAP phosphatase activity was examined by the detection of hydrolysis of p-nitrophenyl phosphate (pNPP) (WAKO) as described previously (Song, H., Hanlon, N., Brown, N. R., Noble, M. E., Johnson, L. N., and Barford, D. (2001) Mol. Cell. 7, 615-626). The time course of phosphatase activity for KAP was examined. 20 μl of reaction mixture containing 50 mM Tris-HCl, pH 7.5, 0.15 M NaCl, 2 mM DTT, 0.5 mM EDTA, 3 mM pNPP, 40 μM KAP, 4 μM cdk cyclin A (Upstate Biotechnology), and 20 μM HTm4 was incubated at 30° C. for the indicated times. The reaction was halted by the addition of 0.1 M NaOH. The phosphatase activity in 5 μl of each sample was measured as A410. To investigate the effect of HTm4 on KAP, KAP phosphatase activity was assessed with different HTm4 concentrations in the presence of pNPP. Reaction velocity was measured in the presence of 0.0025-20 μM HTm4.
(§1) 20 μl of reaction mixture containing 50 mM Tris-HCl, pH 7.5, 0.15 M NaCl, 2 mM DTT, 0.5 mM EDTA, 3 mM pNPP, 40 μM KAP, 4 μM cdk2.cyclin A, and 20 μM HTm4 was incubated at 30° C. for the indicated times. The reaction was halted by the addition of 0.1 M NaOH. The phosphatase activity in 5 μl of each sample was measured at 410 nm. […] KAP phosphatase activity was assessed in the presence of increasing amounts of HTm4 using pNPP as the KAP substrate. The reaction velocity was measured in the presence of 0.0025-20 μM HTm4. All reaction mixtures contained 40 μM KAP and 4 μM active cdk2.cyclin A. Reactions were repeated in triplicate. Their average values and standard deviations are shown. […] KAP phosphatase activity was assessed using the Ser/Thr Assay Kit 1 with different concentrations of active cdk2.cyclin A (from 4 to 20 μM) as the substrate in the presence or absence of 40 μM HTm4. […] KAP phosphatase activity was assessed using the Ser/Thr Assay Kit 1 with different concentrations of active cdk2.cyclin A (from 4 to 20 μM) as the substrate in the presence or absence of 40 μM HTm4.

KAP [2] = target: T2, KAP (Homo sapiens, UniProt Q16667); test: Surface plasmon resonance (BioSensor Biacore) protein interaction assay; assay type: binding; settings: for binding to KAP-coupled sensor chip (increase in mass): versus uncoupled or nonspecifically coupled chips
T2 construct: Full-length KAP protein was coupled to a sensor chip CM-5 shell; made in house
T2 sequence (Q16667 1-212): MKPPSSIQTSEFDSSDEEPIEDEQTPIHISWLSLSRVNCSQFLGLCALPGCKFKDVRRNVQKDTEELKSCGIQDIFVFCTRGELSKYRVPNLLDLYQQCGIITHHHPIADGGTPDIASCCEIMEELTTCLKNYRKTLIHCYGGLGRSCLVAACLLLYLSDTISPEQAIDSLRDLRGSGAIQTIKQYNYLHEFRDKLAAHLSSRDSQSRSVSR
Experimental: The immobilization of proteins to sensor chips (CM-5 chip) was performed using a carbodiimide covalent linkage protocol (Amersham Biosciences). KAP was coupled to the sensor chip at 2,800 resonance units (RU). Nonspecific human immunoglobin was coupled to the surface of the sensor chip (anti-β 2m antibody BBM.1) at 2,900 RU. Protein interaction assays were carried out using the BioSensor Biacore 2000 (Biacore). An HTm4 C-terminal peptide composed of 22 amino acids ([…] SEQ ID NO:3) was synthesized. Either full-length HTm4 protein (20 μM), or HTm4 C-terminal peptide (1 mM) in 50 mM HEPES containing 1 mM EDTA, 1 mM DTT, 5% glycerol, and 0.1% Tween 20 was examined at a flow rate of 10 μl/min.
Surface plasmon resonance was used to detect direct binding of purified HTm4 to KAP. Full-length KAP protein was coupled to a sensor chip CM-5 shell (Amersham Biosciences).
The interactions of HTm4 with immobilized proteins were analyzed on a sensor chip (CM-5) cell. KAP was coupled to the surface of the sensor chip at 2,800 RU; nonspecific human immunoglobulin (NS) was coupled to the surface of the sensor chip (anti-β2m antibody BBM.1) at 2,900 RU; UC, uncoupled sensor chip. Binding of 20 μM full-length HTm4 protein in 50 mM HEPES containing 1 mM EDTA, 1 mM DTT, 5% glycerol, and 0.1% Tween 20 was examined at a flow rate of 10 μl/min. […] The interactions of HTm4 with immobilized proteins were analyzed on a sensor chip (CM-5) cell. KAP was coupled to the surface of the sensor chip at 2,800 RU; nonspecific human immunoglobulin was coupled on the surface of the sensor chip (anti-β 2m antibody BBM.1) at 2,900 RU. Binding of 1 mM HTm4 C-terminal peptide in 50 mM HEPES containing 1 mM EDTA, 1 mM DTT, 5% glycerol, and 0.1% Tween 20 was examined at a flow rate of 10 μl/min. Responses from uncoupled cells were subtracted.

KAP [3] = target: T2, KAP; test: Circular dichroism spectroscopy of KAP; settings: 5 μM KAP, 50 μM HTm4 C-peptide, 250 to 320 nm
Experimental: Circular Dichroism (CD) spectroscopic measurements were performed on a Jasco J-700 (Jasco, Japan). Spectra measurements were recorded from 250 to 320 nm. The spectra change of KAP was measured by comparing two different KAP samples in the same solution (20 mM Tris-HCl, pH 7.2, 0.15 M NaCl). Sample A contained 5 μM KAP and an excess amount of HTm4 C-peptide (50 μM). The contents of sample B were identical to those in sample A, except for HTm4 C-peptide. The difference in spectra was further converted to parameter (mean residue ellipticity) and plotted on the graph in FIG. 4.
Spectra measurements were recorded from 250 to 320 nm. The spectra change of KAP was measured by comparing two different KAP samples in the same solution (20 mM Tris-HCl, pH 7.2, 0.15 M NaCl). Sample A contains 5 μM KAP and an excess amount of HTm4 C-peptide (50 μM). Sample B was formulated as Sample A, with the exception of the HTm4 C-peptide. The difference in spectra was further converted to parameter (mean residue ellipticity) and plotted.

KAP phosphatase [4] = target: T3, KAP phosphatase (Homo sapiens, UniProt Q16667); test: KAP dephosphorylation of peptide or protein substrates (Ser/Thr Phosphatase Assay Kit 1); assay type: biochemical; settings: 30 min at 30° C.
T3 construct: made in house
T3 sequence (Q16667 1-212): T2 sequence (Q16667 1-212)
Experimental: KAP dephosphorylation of phosphorylated proteins or peptide substrates was examined using the Ser/Thr Phosphatase Assay Kit 1 (Upstate Biotechnology) according to the manufacturer's instructions. Phosphorylated Thr^160 of cdk2 and K-R-pT-I-R-R peptide were used as substrates for the assay. Concentrations of KAP and HTm4 were both 20 μM; concentrations of p-cdk2 and peptide substrates (K-R-pT-I-R-R) were 10 and 25 μM, respectively. Reactions were performed in pNPP Ser/Thr Assay Buffer, containing 50 mM Tris-HCl, pH 7.0, and 100 μM CaCl2. To examine the importance of the HTm4 C-terminal region and to confirm the KAP phosphatase activity enhancement effect of HTm4, an HTm4 C-terminal peptide composed of 22 amino acids ([…] SEQ ID NO:3) was synthesized. The phosphatase enhancement activity of the HTm4 C-terminal region was examined using the assay protocol described above.
KAP dephosphorylation of phosphorylated proteins or peptide substrates was examined using the Ser/Thr Phosphatase Assay Kit 1 according to the manufacturer's instructions. Phosphorylated Thr^160 of cdk2 (p-cdk2) and K-R-pT-I-R-R peptides (SEQ ID NO:4) were used as substrates for the assay. […]
Phosphorylated threonine 160 from cdk2.cyclin A, active, and phosphopeptide (K-R-pT-I-R-R) were used as substrates to assess KAP activity. […] The reaction was allowed to proceed for 30 min at 30° C., and absorbance was measured at 650 nm.

[5] = target: KAP.cdk2.cyclin A complex (Homo sapiens, UniProt Q16667); test: Cyclin A dissociation assay; assay type: biochemical; settings: 1 or 10 μM HTm4 without His tag, His-tagged KAP pull-down
Experimental: The status of the cdk2.cyclin A complex was examined in the presence and absence of HTm4. […] The bound fractions were resolved by SDS-PAGE and Western blotted for the presence of cyclin A (Santa Cruz Biotechnology). An alkaline phosphatase conjugated to anti-rabbit IgG (EY Laboratory) was used to visualize the amount of bound cyclin A present in the KAP cdk2 complex. […] After incubating at room temperature for 5 min, either 10 μl of 10 μM HTm4 (without His tag) or its buffer was added to the reaction mixture. After incubating at room temperature for 5 min, 5 μl of nickel magnet beads was added to each mixture. […] The gel was stained with a silver staining kit (ATTO).
After that, 5 μl of nickel magnet beads was added. Bound fractions were electrophoresed by SDS-PAGE and then detected by Western blotting with anti-cyclin A antibody as the primary antibody, and alkaline phosphatase-conjugated anti-rabbit IgG was used as the secondary antibody. The band of cyclin A is indicated with an arrow. […] After incubation at room temperature for 5 min, 10 μl of 10 μM HTm4 (without His tag) or its buffer was added to the mixture and allowed to incubate at room temperature for 5 mins. 5 μl of nickel magnet beads was added to each mixture. […] The gel was then silver stained. Bands of cyclin A, cdk2, and KAP are indicated with arrows.

KAP phosphatase [6] = target: T1, KAP phosphatase; test: Kinetic measurements of KAP phosphatase with active cdk2.cyclin A as substrate (Lineweaver-Burk plot); assay type: biochemical; settings: 40 μM HTm4, active cdk2.cyclin A 4 to 20 μM as substrate
Experimental: To investigate the effect of HTm4 on KAP, the initial reaction velocity of KAP was assessed using different concentrations of active cdk2.cyclin A as the substrate in the presence or absence of HTm4. The results were analyzed further using a Lineweaver-Burk plot.
as §1

enhancement effect on KAP phosphatase activity compared with HTm4 wild-type protein (KAP phosphatase [1]; C-terminal peptide at 0.1 mM, pNPP substrate): comparable enhancement effect
binding to KAP-coupled sensor chip (increase in mass) (KAP [2]; 1 mM HTm4 C-terminal peptide, flow rate 10 μl/min): immediate increase in mass was observed
CD difference spectrum of KAP with versus without C-peptide (KAP [3]): spectral change was found at 270-280 nm
Molecule: CNANCCNSREEISSPPNSV (Synthetic HTm4 C-terminal Peptide) [HTm4 C-peptide]

increase of dephosphorylating activity of KAP toward phosphorylated cdk2 (KAP phosphatase [4]; 20 μM KAP and HTm4, 10 μM p-cdk2 in the cdk2.cyclin A complex): more than 6 fold
KAP dephosphorylation of synthesized phosphopeptide K-R-pT-I-R-R (KAP phosphatase [4]; 20 μM KAP and HTm4, 25 μM peptide substrate): potentiates dephosphorylation
binding to KAP-coupled sensor chip (increase in mass) (KAP [2]; 20 μM full-length HTm4, flow rate 10 μl/min): immediate increase in mass was observed
KAP/HTm4 selective binding after premixing HTm4 with KAP (KAP [2]; premixed with KAP, data not shown): abolished
B1: HTm4: Recombinant human HTm4 (MS4A3) full-length protein purified from E. coli, His tag cleaved (protein, listed as Homo sapiens)
chain: MASHEVDNAELGSASAHGTPGSEAGPEELNTSVYQPIDGSPDYQKAKLQVLGAIQILNAAMILALGVFLGSLQYPYHFQKHFFFFTFYTGYPIWGAVFFCSSGTLSVVAGIKPTRTWIQNSFGMNIASATIALVGTAFLSLNIAVNIQSLRSCHSSSESPDLCNYMGSISNGMVSLLLILTLLELCVTISTIAMWCNANCCNSREEISSPPNSV
KAP phosphatase activity toward pNPP substrate (KAP phosphatase [1]; 20 μM HTm4, wild-type KAP, 4 μM active cdk2.cyclin A): significantly enhanced
effect of increasing HTm4 on KAP phosphatase activity (reaction velocity) (KAP phosphatase [1]; 0.0025-20 μM HTm4, pNPP substrate, 40 μM KAP, 4 μM active cdk2.cyclin A): linearly increased
dissociation of cyclin A from the KAP.cdk2.cyclin A complex [5]: dissociated from the complex in a dose-dependent manner
Vmax of KAP phosphatase activity in the presence of HTm4 (KAP phosphatase [6]): 17.5 nM/min
Km (KAP phosphatase [6]; read-out: Km of KAP phosphatase activity in the presence of HTm4): 8.33 µM

From US7795217B2, “Methods and compositions for cell-cycle regulation” (priority 2005, dated 2010)
